Measurements: paper PMC12191924, “A new naphthalene-based fluorogenic substrate for cytochrome P450 4A11” (Biochemical Journal, 2025)

Tests used:
CYP1A2 = target: T1, CYP1A2 (Homo sapiens, UniProt P05177); assay type: biochemical
T1 sequence (P05177 1-516): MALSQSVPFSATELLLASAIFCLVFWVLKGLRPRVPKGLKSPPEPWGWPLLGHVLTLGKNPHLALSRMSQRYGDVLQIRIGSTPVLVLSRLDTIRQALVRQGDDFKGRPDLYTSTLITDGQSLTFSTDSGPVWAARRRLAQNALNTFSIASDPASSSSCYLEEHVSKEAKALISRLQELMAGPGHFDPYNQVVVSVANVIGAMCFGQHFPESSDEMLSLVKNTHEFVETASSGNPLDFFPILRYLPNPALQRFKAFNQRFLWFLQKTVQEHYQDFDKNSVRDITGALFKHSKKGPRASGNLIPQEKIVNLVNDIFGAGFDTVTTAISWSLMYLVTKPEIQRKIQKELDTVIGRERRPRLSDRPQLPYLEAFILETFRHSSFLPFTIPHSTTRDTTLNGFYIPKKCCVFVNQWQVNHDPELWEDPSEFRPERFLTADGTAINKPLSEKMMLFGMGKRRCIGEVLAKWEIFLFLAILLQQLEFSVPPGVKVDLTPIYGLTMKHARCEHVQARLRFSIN
Description: (§1) Thus, we decided to probe the derivatives of methoxynaphthalene as CYP4A11 substrates. The simplest potential methoxynaphthalene-based P450 substrate is 6-methoxy-2-naphthoic acid, a close analog of naproxen, which is known to be metabolized by P450 enzymes. […] This molecule is apparently too small to be a CYP4A11 substrate. Thus, we searched commercially available derivatives of methoxynaphthalene to find a compound with a longer carboxylic acid chain substituent in the naphthalene ring. This search identified MONACRA (Figure 1) as a potential CYP4A11 substrate. […] We attempted to design a fluorimetric assay of its metabolism suitable for high-throughput studies in HLM.

CYP4A11 = target: T2, CYP4A11 (Homo sapiens, UniProt Q02928); assay: Probing 6-methoxy-2-naphthoic acid as a P450 substrate (data not shown); assay type: biochemical
T2 sequence (Q02928 5-519): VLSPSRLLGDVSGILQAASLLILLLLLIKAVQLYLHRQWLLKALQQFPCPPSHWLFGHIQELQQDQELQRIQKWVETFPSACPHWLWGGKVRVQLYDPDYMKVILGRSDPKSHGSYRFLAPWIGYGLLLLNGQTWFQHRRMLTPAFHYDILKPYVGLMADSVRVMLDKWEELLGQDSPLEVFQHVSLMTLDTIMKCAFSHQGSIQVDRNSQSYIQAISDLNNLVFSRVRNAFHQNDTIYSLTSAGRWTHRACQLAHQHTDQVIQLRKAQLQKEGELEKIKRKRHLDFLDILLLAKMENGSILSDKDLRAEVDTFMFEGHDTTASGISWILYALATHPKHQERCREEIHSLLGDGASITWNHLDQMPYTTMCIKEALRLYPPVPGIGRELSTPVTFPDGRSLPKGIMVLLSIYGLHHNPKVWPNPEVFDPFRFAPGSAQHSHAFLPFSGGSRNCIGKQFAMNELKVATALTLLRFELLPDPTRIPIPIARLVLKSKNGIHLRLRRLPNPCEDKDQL
Description: as §1

[1] = substrate: COc1ccc2cc(C=CC(=O)O)ccc2c1; assay: MONACRA demethylation by recombinant CYP2C8 in Supersomes, high-throughput fluorimetric assay; assay type: biochemical, human; settings: other: CYP2C8 Supersomes; Michaelis–Menten fit
Protocol: (§2) Based on these observations, we developed a high-throughput automated assay applicable for studying SSPs of MONACRA metabolism by microsomal P450 enzymes. In this procedure, the incubation mixtures containing an NADPH-generating system and various substrate concentrations are placed in a multiwell plate and preincubated at 30°C in a thermostated shaker. The reaction is started by adding microsomal suspension to the final concentration of 0.3–1 mg/ml of microsomal protein or 0.02–0.1 µM of recombinant P450 enzymes in Supersomes. Following the incubation for 20 min at 30°C, the reaction is quenched by adding trichloroacetic acid (final concentration […]). After supplementing the wells with Na-glycine buffer (pH 10.4, final concentration 2.1 M), the plates are subjected to scanning the fluorescence spectra with excitation at 375 nm. This assay, which is described in detail in Materials and Methods, allows reliable detection of the concentrations of HONACRA as low as 0.1 µM.
(§3) We used the high-throughput activity assay described above to probe MONACRA metabolism by 16 human microsomal P450 enzymes, namely CYP1A2, CYP2A6, CYP2B6, CYP2C8, CYP2C9, CYP2C19, CYP2D6, CYP2E1, CYP2J2, CYP3A4, CYP3A5, CYP4A11, CYP4F2, CYP4F3A, CYP4F3B, and CYP4F12. […]

[2] = substrate: COc1ccc2cc(C=CC(=O)O)ccc2c1; assay: MONACRA demethylation by recombinant CYP4A11 in Supersomes, high-throughput fluorimetric assay; assay type: biochemical, human; settings: other: CYP4A11 Supersomes, Michaelis–Menten fit, 20 min at 30°C, ± = confidence interval P=0.05
Protocol: as §2, §3

[3] = substrate: COc1ccc2cc(C=CC(=O)O)ccc2c1; assay: MONACRA demethylation by recombinant CYP1A2 in Supersomes, high-throughput fluorimetric assay; assay type: biochemical, human; settings: other: CYP1A2 Supersomes; substrate inhibition equation; ± = confidence interval P=0.05
Protocol: as §2, §3

In the case of `COc1ccc2cc(C(=O)O)ccc2c1` [6-methoxy-2-naphthoic acid], the “O-demethylation by P450 enzymes” value (CYP1A2) is reported as “undergoes O-demethylation catalyzed predominantly by CYP1A2” and the “metabolism by CYP4A11” value (CYP4A11) is reported as “not metabolized by CYP4A11”.

B1: CYP2C8 (Homo sapiens) (protein)
chain: MEPFVVLVLCLSFMLLFSLWRQSCRRRKLPPGPTPLPIIGNMLQIDVKDICKSFTNFSKVYGPVFTVYFGMNPIVVFHGYEAVKEALIDNGEEFSGRGNSPISQRITKGLGIISSNGKRWKEIRRFSLTTLRNFGMGKRSIEDRVQEEAHCLVEELRKTKASPCDPTFILGCAPCNVICSVVFQKRFDYKDQNFLTLMKRFNENFRILNSPWIQVCNNFPLLIDCFPGTHNKVLKNVALTRSYIREKVKEHQASLDVNNPRDFIDCFLIKMEQEKDNQKSEFNIENLVGTVADLFVAGTETTSTTLRYGLLLLLKHPEVTAKVQEEIDHVIGRHRSPCMQDRSHMPYTDAVVHEIQRYSDLVPTGVPHAVTTDTKFRNYLIPKGTTIMALLTSVLHDDKEFPNPNIFDPGHFLDKNGNFKKSDYFMPFSAGKRICAGEGLARMELFLFLTTILQNFNLKSVDDLKNLNTTAVTKGIVSLPPSYQICFIPV
notes: purchased Gentest (Huntsville, AL), now a part of Discovery Life Sciences lot 81760; host or cells: insect cells, recombinant baculovirus
With B1 the Km [1] was 456 ± 188 µM and the kcat [1] was 0.0267 ± 0.0117 s⁻¹.

B2: CYP4A11 (Homo sapiens) (protein)
chain: T2 sequence (Q02928 5-519)
notes: purchased Gentest (Huntsville, AL), now a part of Discovery Life Sciences lot 2402280; host or cells: insect cells, recombinant baculovirus
For B2, the Km [2] was 189 ± 37 µM and the kcat [2] was 1.12 ± 0.3 s⁻¹.

B3: CYP1A2 (Homo sapiens) (protein)
chain: ALSQSVPFSATELLLASAIFCLVFWVLKGLRPRVPKGLKSPPEPWGWPLLGHVLTLGKNPHLALSRMSQRYGDVLQIRIGSTPVLVLSRLDTIRQALVRQGDDFKGRPDLYTSTLITDGQSLTFSTDSGPVWAARRRLAQNALNTFSIASDPASSSSCYLEEHVSKEAKALISRLQELMAGPGHFDPYNQVVVSVANVIGAMCFGQHFPESSDEMLSLVKNTHEFVETASSGNPLDFFPILRYLPNPALQRFKAFNQRFLWFLQKTVQEHYQDFDKNSVRDITGALFKHSKKGPRASGNLIPQEKIVNLVNDIFGAGFDTVTTAISWSLMYLVTKPEIQRKIQKELDTVIGRERRPRLSDRPQLPYLEAFILETFRHSSFLPFTIPHSTTRDTTLNGFYIPKKCCVFVNQWQVNHDPELWEDPSEFRPERFLTADGTAINKPLSEKMMLFGMGKRRCIGEVLAKWEIFLFLAILLQQLEFSVPPGVKVDLTPIYGLTMKHARCEHVQARLRFSIN
notes: purchased Gentest (Supersomes), now a part of Discovery Life Sciences; CYP1A2 is not in the lot list; host or cells: insect cells, recombinant baculovirus
Molecule B3 has a Km [3] of 161 ± 34 µM and a kcat [3] of 0.733 ± 0.1 s⁻¹.
